# Measured values: article PMC3445539
# Tests used:
# mCherry-CENP-O (human) = mCherry-CENP-O (human) (UniProt Q9BU64); test: FRET or BRET; FLIM: donor fluorescence lifetime by time-correlated single photon counting at kinetochores of living HEp-2 cells, EGFP donor and mCherry acceptor
# mCherry-CENP-P [1] = biological target: mCherry-CENP-P (UniProt Q6IPU0); test: fluorescence cross-correlation spectroscopy (FCCS); nucleoplasm free of kinetochores in living double-transfected U2OS cells, EGFP and mCherry fusions, 37°C
# mCherry-CENP-P [2] = biological target: mCherry-CENP-P (UniProt Q6IPU0); test: FRET or BRET; FLIM: donor fluorescence lifetime by time-correlated single photon counting at kinetochores of living HEp-2 cells, EGFP donor and mCherry acceptor
# Sequence of UniProt Q9BU64 (Q9BU64 whole entry, the tested form may be a part): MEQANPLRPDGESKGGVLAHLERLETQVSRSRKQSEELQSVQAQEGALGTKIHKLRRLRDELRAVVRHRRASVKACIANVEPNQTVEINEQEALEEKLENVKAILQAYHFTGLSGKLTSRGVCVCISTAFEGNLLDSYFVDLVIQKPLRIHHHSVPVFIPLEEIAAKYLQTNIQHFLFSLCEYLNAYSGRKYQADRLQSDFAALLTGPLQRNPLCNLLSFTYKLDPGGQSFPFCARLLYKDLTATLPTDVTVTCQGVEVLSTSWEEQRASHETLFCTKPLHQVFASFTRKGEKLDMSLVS
substance,measurement,setting,value
CENP-P-EGFP (from UniProt Q6IPU0 1-288) (natural protein),donor fluorescence lifetime in the presence of the acceptor,mCherry-CENP-O (human),2.16 nsec
EGFP-CENP-O,"percent hetero-dimers, the authors' corrected estimate",mCherry-CENP-P [1]; other: fluorescence cross-correlation spectroscopy (FCCS),we estimate 40–60%
CENP-Q-EGFP (from UniProt Q7L2Z9 1-268) (natural protein),donor fluorescence lifetime in the presence of the acceptor,mCherry-CENP-P [2],2.08 nsec
EGFP-CENP-O (from UniProt Q9BU64 1-300) (natural protein),"percent hetero-dimers, A(CC)/A(AC)",mCherry-CENP-P [1],20 to 30%
same,percent of the molecules co-migrating (cross-correlation amplitude over mCherry amplitude),mCherry-CENP-P [1],29%
